Substitutions are numbered along the chain they refer to.
T1: Rat ROBO2 on cells (rat, UniProt Q7TPD3 22-1469 (mouse entry))
T1 construct: overexpressed on HEK293 cells in flow cytometry; endogenous on rat SVZ neuronal explants in the SVZa assay
T1 chain: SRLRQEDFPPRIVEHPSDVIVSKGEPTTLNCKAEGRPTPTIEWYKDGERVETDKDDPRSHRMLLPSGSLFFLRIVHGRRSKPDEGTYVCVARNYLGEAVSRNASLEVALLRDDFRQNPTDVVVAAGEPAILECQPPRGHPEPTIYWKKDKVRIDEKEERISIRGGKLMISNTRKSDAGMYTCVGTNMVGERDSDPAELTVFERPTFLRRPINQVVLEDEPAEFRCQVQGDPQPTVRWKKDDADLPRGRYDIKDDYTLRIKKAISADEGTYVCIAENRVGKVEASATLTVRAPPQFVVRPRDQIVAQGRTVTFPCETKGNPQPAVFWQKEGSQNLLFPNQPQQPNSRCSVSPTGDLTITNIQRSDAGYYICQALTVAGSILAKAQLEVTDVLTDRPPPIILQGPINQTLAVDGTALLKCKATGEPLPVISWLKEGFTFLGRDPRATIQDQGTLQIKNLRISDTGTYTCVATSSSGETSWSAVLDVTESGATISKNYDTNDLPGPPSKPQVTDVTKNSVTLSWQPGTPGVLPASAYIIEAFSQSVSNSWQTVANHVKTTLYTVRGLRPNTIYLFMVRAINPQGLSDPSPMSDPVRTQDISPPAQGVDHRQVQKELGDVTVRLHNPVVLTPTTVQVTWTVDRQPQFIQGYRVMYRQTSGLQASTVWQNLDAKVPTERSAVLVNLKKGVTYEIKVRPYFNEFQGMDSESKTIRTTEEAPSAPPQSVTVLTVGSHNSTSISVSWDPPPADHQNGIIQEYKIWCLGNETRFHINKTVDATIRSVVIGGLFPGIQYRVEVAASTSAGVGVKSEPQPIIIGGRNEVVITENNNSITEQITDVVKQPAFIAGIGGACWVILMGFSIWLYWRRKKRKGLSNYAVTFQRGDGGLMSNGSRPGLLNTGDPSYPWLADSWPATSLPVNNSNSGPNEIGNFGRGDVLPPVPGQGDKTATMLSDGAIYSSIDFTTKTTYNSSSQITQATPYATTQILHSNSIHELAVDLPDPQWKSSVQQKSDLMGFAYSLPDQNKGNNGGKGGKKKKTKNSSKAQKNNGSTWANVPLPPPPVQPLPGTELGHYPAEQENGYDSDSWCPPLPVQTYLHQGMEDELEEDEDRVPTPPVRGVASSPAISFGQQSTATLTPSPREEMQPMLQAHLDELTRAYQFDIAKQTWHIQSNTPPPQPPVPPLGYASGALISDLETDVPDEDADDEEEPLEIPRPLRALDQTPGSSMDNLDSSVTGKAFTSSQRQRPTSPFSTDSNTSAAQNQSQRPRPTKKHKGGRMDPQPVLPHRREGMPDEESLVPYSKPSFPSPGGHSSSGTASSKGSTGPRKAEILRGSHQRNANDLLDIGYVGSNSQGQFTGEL

B1: 93H2 (antibody, human IgG1, kappa, V domains shown)
VH: EVQLVQSGAEVKKPGASVKVSCKASGYTFTGYYMHWVRQAPGQGLEWMGWINPNSGATNFPQKFQGRVTMTRDTSITTAYMDLSRLRSDDTAVYYCARESGDDAFDIWGQGTMVTVSS
VL: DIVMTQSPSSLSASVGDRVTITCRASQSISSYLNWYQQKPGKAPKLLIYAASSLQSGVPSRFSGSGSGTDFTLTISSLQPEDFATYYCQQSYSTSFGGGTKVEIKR
notes: also called parental 93H2; 93H2 mAb
B2: Abcs25 (antibody, human IgG1, kappa, V domains shown)
VH: B1 VH with N54K, S55D, A57D, N59E
VL: DIVMTQSPSSLSASVGDRVTITCRASQSISSYLNWYQQKPGKAPKLLIYAASSLQSGVPSRFSGSGSGTDFTLTISSLQPEDFATYYCQQSVGLSFGGGTKVEIKR
notes: chain-shuffled IgG
B3: Abcs35 (antibody, human IgG1, kappa)
heavy: EVQLVQSGAEVKKPGASVKVSCKASGYTFTGYYMHWVRQAPGQGLEWMGWINPKNGDTEFPQKFQGRVTMTRDTSITTAYMDLSRLRSDDTAVYYCARESGDDAFDIWGQGTMVTVSSASTKGPSVFPLAPSSKSTSGGTAALGCLVKDYFPEPVTVSWNSGALTSGVHTFPAVLQSSGLYSLSSVVTVPSSSLGTQTYICNVNHKPSNTKVDKKVEPKSCDKTHTCPPCPAPEAAGAPSVFLFPPKPKDTLMISRTPEVTCVVVDVSHEDPEVKFNWYVDGVEVHNAKTKPREEQYNSTYRVVSVLTVLHQDWLNGKEYKCKVSNKALPAPIEKTISKAKGQPREPQVYTLPPSREEMTKNQVSLTCLVKGFYPSDIAVEWESNGQPENNYKTTPPVLDSDGSFFLYSKLTVDKSRWQQGNVFSCSVMHEALHNHYTQKSLSLSPGK
light: DIVMTQSPSSLSASVGDRVTITCRASQSISSYLNWYQQKPGKAPKLLIYAASSLQSGVPSRFSGSGSGTDFTLTISSLQPEDFATYYCQQSVGLFFGGGTKVEIKRTVAAPSVFIFPPSDEQLKSGTASVVCLLNNFYPREAKVQWKVDNALQSGNSQESVTEQDSKDSTYSLSSTLTLSKADYEKHKVYACEVTHQGLSSPVTKSFNRGEC
notes: fully human IgG1; VH of Ab96 with VL of Ab123

Target: T1, Rat ROBO2 on cells
Assay: flow cytometry, HEK293 cells, average of n = 3
Description: (§1) Binding of the antibodies was detected using a secondary fluorochrome conjugated anti-human IgG F(ab′)₂ antibody and samples were analyzed on a Fortessa cytometer (BD Biosciences). The fold ROBO2 selectivity was calculated as the geometric mean fluorescence intensity (Geo MFI) with ROBO2 cells/Geo MFI with ROBO1 cells. A fold change higher than 3 was considered to be ROBO2 specific (Table 2, Fold Selectivity). Some affinity matured clones had increased ROBO1 reactivity, for example Abcs 55, CTI-R2-10 and CTIR2-13.
(§2) Based upon several criteria, Abcs25 and Abcs35 were selected for further characterization. Using flow cytometry, improvement in the binding EC₅₀ to human ROBO2 relative to the parental 93H2 was evaluated. Starting at 6.7 nM, 11-point, 3-fold dilution series were made for each antibody and used to stain HEK293 overexpressing human ROBO2 as described above for the ROBO2 fold selectivity (Example 2). […] In addition to measuring improved binding to human ROBO2, it was important to ensure that high affinity binding to both cynomolgus monkey ROBO2 and rat ROBO2 was maintained. Using HEK293 cells overexpressing either cynomolgus monkey ROBO2 or rat ROBO2, the relative dose-dependent binding of 93H2, Abcs25 and Abcs35 was evaluated as described above. High affinity binding to both cynomolgus monkey and rat ROBO2 was maintained in Abcs25 and Abcs35 (Table 4). […] Briefly, Abcs35 was immobilized to 300 resonance units (RU) on a CM5 chip. Association of ROBO2 Ig1-Ig2-His (ROBO2) was measured over 5 minutes and dissociation was followed for a period of 10 minutes.

Row | Binder | EC50
1 | B1 | 1.2 nM
2 | B2 | 0.062 nM
3 | B3 | 0.048 nM

Target: T2, Human ROBO1 RSK mutant overexpressed on HEK293 cells (human, UniProt Q9Y6N7 26-1651)
T2 construct: K137R and R139K already in the entry; also called ROBO1-RSK cells
Assay: flow cytometry, HEK293 ROBO1-RSK cells
Description: as §1, §2
RSK specificity for Abcs35, along with 93H2 and Abcs25, also was confirmed in a cell-based binding assay using flow cytometry. HEK293 cells overexpressing ROBO2 containing the KSR sequence from ROBO1 (ROBO2-KSR) or ROBO1 containing the RSK sequence from ROBO2 (ROBO1-RSK) were generated. As described above in Example 3, dose-dependent binding was evaluated.

T2 sequence (Q9Y6N7 other isoform, or with tags, fused parts or gaps mutant limits assumed): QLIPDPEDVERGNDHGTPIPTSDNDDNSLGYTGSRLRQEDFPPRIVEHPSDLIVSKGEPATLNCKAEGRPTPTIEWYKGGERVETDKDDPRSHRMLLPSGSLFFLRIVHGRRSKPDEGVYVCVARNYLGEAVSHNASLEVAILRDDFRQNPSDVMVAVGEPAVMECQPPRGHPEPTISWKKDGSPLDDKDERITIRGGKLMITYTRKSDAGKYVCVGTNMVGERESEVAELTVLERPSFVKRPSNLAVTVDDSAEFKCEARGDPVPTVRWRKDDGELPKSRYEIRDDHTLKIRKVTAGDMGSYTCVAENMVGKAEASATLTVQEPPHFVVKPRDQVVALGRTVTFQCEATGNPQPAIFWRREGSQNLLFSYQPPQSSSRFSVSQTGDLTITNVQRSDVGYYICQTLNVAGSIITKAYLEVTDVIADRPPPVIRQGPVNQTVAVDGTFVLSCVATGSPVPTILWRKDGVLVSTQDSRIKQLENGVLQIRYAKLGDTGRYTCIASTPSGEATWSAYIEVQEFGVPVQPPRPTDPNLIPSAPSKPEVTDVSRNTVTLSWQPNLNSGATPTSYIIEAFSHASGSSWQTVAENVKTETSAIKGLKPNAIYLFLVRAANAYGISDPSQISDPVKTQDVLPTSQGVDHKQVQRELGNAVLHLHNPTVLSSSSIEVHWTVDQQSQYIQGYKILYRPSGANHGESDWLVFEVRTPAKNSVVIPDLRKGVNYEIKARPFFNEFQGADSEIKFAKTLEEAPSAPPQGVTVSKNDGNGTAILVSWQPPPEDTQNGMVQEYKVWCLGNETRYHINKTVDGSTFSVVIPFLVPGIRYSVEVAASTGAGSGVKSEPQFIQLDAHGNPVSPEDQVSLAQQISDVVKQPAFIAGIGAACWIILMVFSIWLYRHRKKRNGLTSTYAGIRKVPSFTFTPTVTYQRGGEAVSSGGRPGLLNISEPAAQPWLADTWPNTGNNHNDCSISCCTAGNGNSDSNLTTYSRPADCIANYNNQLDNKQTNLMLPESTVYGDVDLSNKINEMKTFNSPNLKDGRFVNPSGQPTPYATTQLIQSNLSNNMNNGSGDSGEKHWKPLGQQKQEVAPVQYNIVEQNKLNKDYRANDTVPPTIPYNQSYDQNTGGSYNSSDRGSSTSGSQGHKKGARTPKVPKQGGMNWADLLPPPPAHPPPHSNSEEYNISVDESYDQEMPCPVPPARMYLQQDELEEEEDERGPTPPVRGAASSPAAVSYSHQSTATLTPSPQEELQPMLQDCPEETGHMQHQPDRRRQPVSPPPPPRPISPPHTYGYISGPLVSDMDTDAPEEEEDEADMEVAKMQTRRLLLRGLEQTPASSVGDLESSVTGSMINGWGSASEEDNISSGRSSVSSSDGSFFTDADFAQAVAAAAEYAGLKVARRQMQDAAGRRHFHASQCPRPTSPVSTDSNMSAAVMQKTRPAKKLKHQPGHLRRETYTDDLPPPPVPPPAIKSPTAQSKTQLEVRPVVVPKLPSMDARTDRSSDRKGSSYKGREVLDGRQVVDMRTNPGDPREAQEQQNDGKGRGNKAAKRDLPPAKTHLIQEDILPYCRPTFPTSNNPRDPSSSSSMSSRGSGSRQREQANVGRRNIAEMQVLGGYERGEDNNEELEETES

Row | Binder | EC50
4 | B1 | 0.37 nM
5 | B2 | 0.061 nM
6 | B3 | 0.074 nM

— patent US20200157212A1 (Pfizer, published 2020)
